Publication PMC5955915

Tests used:
[1] = target: BG505 NFL.664 (native flexibly linked, cleavage-independent soluble HIV Env trimer) (HIV-1 isolate BG505 (clade A)); experiment: cryo-EM structure
[2] = target: BG505 NFL.664 (native flexibly linked, cleavage-independent soluble HIV Env trimer) (HIV-1 isolate BG505 (clade A)); experiment: crystal structure
DSC = conditions: glycan changed form; control: BG505 NFL.664 from HEK 293F, natural glycoforms
BG505 SOSIP.664 = experiment: BLI

Substance | stoichiometry N [1] | stoichiometry N [2] | stability_or_folding, Tm (DSC) | Kd (BG505 SOSIP.664) [nM] | koff (BG505 SOSIP.664) [s⁻¹]
BG505 NFL.664 (native flexibly linked, cleavage-independent soluble HIV Env trimer) | 3 | 3 |  |  | 
BG505 NFL.664 Env trimer: kifunensine and swainsonine (oligomannose only) |  |  | no change, 66.6 vs 65.8 |  | 
PGT121 Fab |  |  |  | 58.5 | 0.00033
PGT124 Fab |  |  |  | 38.3 | 0.00059
